Reference: the supplement of paper PMC10567573
± gives the standard deviation.

Experiment: protein stability index of a GFP-peptide fusion (GPS, HEK-293T) (PSI 1-6); higher = more stable
[1] = treatment: DMSO, c terminus: a fixed tail appended
[2] = treatment: MLN4924 1 uM, 8 h, c terminus: a fixed tail appended
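Further: 24-mer peptide tiles fused after GFP, lentivirally expressed, FACS-sorted into six equal bins by GFP/DsRed ratio, decoded by Illumina sequencing, PSI is the read-weighted mean bin number.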

Sequence	protein stability index [1]	protein stability index [2]	protein stability index (treatment: DMSO, c terminus: native)	protein stability index (treatment: MLN4924 1 uM, 8 h, c terminus: native)
FGVTYLEDYSAEYIIQQGGWGTVF [BCL2L13]	2.48 ± 0.38	2.33 ± 0.26	–	–
FHCIETLVTTGANVNETDDWGRTA [ANKRD44]	2.62 ± 0.32	3.15 ± 0.36	–	–
FHLSLFQGWMNLLNMAKKSVDIVS [PLD5]	2.99 ± 1.5	1.73 ± 0.94	–	–
FICKECGKAYGWCSELIRHRRVHA [ZNF232]	3.38 ± 0.3	3.73 ± 0.33	–	–
FISQVTVLKYFSHYMEENLMDGGD [PLK2]	2.46 ± 0.69	2.3 ± 0.49	–	–
FIVGMVGNATLLRIIYQNKCMRNG [EDNRA]	2.98 ± 0.15	2.51 ± 0.68	–	–
FKPKNEEPYGHLNPKWTKWLQKLC [PI4K2A]	2.88 ± 0.58	2.79 ± 0.54	–	–
FLCLQYRLRGKLRAEIENLHRTFD [MOG]	2.41 ± 0.57	2.18 ± 0.39	–	–
FLGETKQETLTNISAVNYDFDEEY [DAPK3]	4.77 ± 0.35	4.84 ± 0.24	–	–
FLGGVVRMTISLTVILIESTNEIT [CLCN6]	3.41 ± 0.43	3.42 ± 0.19	–	–
FMHENLYFTNRKVNSVCWASLNHL [DCAF4]	2.69 ± 0.48	2.46 ± 0.53	–	–
FMQTGYNKLCDWWSLGVIMYEMLI [STK38L]	2.77 ± 0.82	2.47 ± 0.64	–	–
FPLKPMVHRKSCSTGEAGTDGDHN [ZC2HC1C]	4.53 ± 0.18	4.38 ± 0.27	–	–
FPNWAMALLITLIVVATLPIPVVF [SLC6A17]	3.43 ± 0.88	3.04 ± 0.33	–	–
FQEYDTDCEVFRQRFRQFQYREAA [ZNF449]	2.77 ± 0.27	3.18 ± 0.23	–	–
FQKSHNSLQRWEHLKKVASRYQNN [PRIM1]	2.46 ± 0.42	2.9 ± 0.13	–	–
FSGHFLCTSSWDKNLKIWNVHTGE [WDR88]	2.71 ± 0.71	2.55 ± 0.15	–	–
FSNTSELAKDFIRRLLVKDPKRRM [DAPK3]	2.36 ± 0.19	2.16 ± 0.44	–	–
FVLYFLLACWTYGISVPSGLFVPS [CLCN6]	3.49 ± 0.56	3.09 ± 0.14	–	–
FVNDLTVTQDGRKIYFTDSSSKWQ [APMAP]	2.8 ± 0.46	2.92 ± 0.24	–	–
FYLVYFKIQASGETPNSLNTTVIP [LYSMD4]	2.9 ± 0.04	–	–	–
GAAVGTGSSYPTTTISYLPHAPPF [JUNB]	3.1 ± 0.29	3.35 ± 0.36	–	–
GAEDGDRAILYPCHGMSSQLVRYS [GALNT9]	3.09 ± 0.17	3.16 ± 0.29	–	–

Sequence	protein stability index [1]	protein stability index [2]	protein stability index (treatment: DMSO, c terminus: native)	protein stability index (treatment: MLN4924 1 uM, 8 h, c terminus: native)
GAHFPQVPGGAVRVAAAAGSGPSP [PI4K2A]	4.53 ± 0.14	4.48 ± 0.088	–	–
GAYQPTVVSSEGRQSRRQSVSRFF [FBF1]	4.01 ± 0.37	4.1 ± 0.32	–	–
GCRTTHSNQEVLQSCLLVIFATKP [PYCR3]	2.64 ± 0.68	2.65 ± 0.91	–	–
GDWHSPTLIREKSFGACLREETPR [ELOA2]	3.61 ± 0.3	3.76 ± 0.32	–	–
GELQESGLALCPEVQDLLEGCELP [SMG5]	5.17 ± 0.11	5.08 ± 0.22	–	–
GENAGSLTHIEAQNKIRACGERLS [PDLIM7]	4.57 ± 0.26	4.62 ± 0.14	–	–
GEPQQDCCVKTELLGEETPMAADE [EHMT1]	5.55 ± 0.25	5.53 ± 0.14	–	–
GFAERRIDKFGFIVGSQGAEGALE [TBC1D10A]	3.93 ± 0.46	3.93 ± 0.19	–	–
GFSCDGTANTFRVMFKEPIEILPN [BTBD1]	2.6 ± 0.22	2.73 ± 0.31	–	–
GGATFLLTAKQLIKSIVEASKGCQ [TRIM63]	2.87 ± 0.7	2.86 ± 0.47	–	–
GGGLTGVSGSHFVGVDGVRAFLQT [PCDHGA10]	2.82 ± 0.29	2.83 ± 0.32	–	–
GGPQRIPAHRFVLAAGSAVFDAMF [BTBD1]	2.52 ± 0.31	2.2 ± 0.56	–	–
GGRFRCPSCRHEVVLDRHGVYGLQ [TRIM55]	2.31 ± 0.23	2.36 ± 0.6	–	–
GGYGFGRGRASGFAGSMFGSVALG [KRT71]	3.05 ± 0.6	2.96 ± 0.25	–	–
GKGFRHSSSLAQHQRKHAGEKPFE [ZNF8]	4.82 ± 0.21	4.69 ± 0.28	–	–
GKSPDTNYLFMGDYVDRGYYSVET [PPP2CA]	2.73 ± 0.28	2.87 ± 0.17	–	–
GKTPTVRAALICLTLVLVASVLLQ [CD207]	3.17 ± 0.16	3.11 ± 0.76	–	–
GKWMKKFPESETKECPFRVNKVCG [SERPINB5]	3.13 ± 0.32	3.47 ± 0.38	–	–
GLLQDQGSGLSSRFEEPKGPPARQ [CBY2]	4.89 ± 0.29	5.09 ± 0.23	–	–
GLMVTCGTDRIVKIWDMTPVVGCS [WDFY1]	2.29 ± 0.21	2.18 ± 0.22	–	–
GLRASTSDGILRGNGTGYLPGRGR [RHOBTB2]	4.58 ± 0.26	4.58 ± 0.2	–	–
GLVTAALHMVIVAAFTWAFTLFFE [KMT2E]	1.96 ± 0.3	1.83 ± 0.29	–	–
GMGGIQNEKETMQSLNDRLASYLD [KRT18]	3.86 ± 0.18	3.84 ± 0.23	–	–

Sequence	protein stability index [1]	protein stability index [2]	protein stability index (treatment: DMSO, c terminus: native)	protein stability index (treatment: MLN4924 1 uM, 8 h, c terminus: native)
GNCKYKVDCACLKENPECPVLKRS [KMT2E]	3.41 ± 0.5	4.05 ± 0.74	–	–
GNMFPTIGDVHLAPFTDEQLYMEQ [CARM1]	3.93 ± 0.27	4.12 ± 0.19	–	–
GNPRALSFVLSSLQLGEGVEFDVL [OAS1]	2.29 ± 0.22	2.12 ± 0.32	–	–
GPAAAAAPSLEAPKPSGLEPGPAA [KCTD13]	5.4 ± 0.11	5.39 ± 0.29	–	–
GPDNLVLLNPEKYKAKSRSPGSPV [ADD1]	4.47 ± 0.25	4.63 ± 0.13	–	–
GPLAQPLTLQVLVAGNPQDTRLRY [ADAMTS4]	2.49 ± 0.22	2.86 ± 0.1	–	–
GPLDIWAVVKPGNTKEKIAFFASH [FBXO34]	2.45 ± 0.27	2.78 ± 0.21	–	–
GPPPGAPHTPQTPGQGGPASTPAQ [NR2F2]	5.34 ± 0.18	5.34 ± 0.16	–	–
GQFVSLDGAGKTPTLGGGFHVNLG [BRF1]	2.96 ± 0.37	3.06 ± 0.11	–	–
GRARATGGDLEEQQHAEGSPEPGT [DNAAF3]	5.59 ± 0.3	5.54 ± 0.23	–	–
GRRQRKSEKRRDPPNGPNLPMATV [WASL]	4.7 ± 0.37	4.47 ± 0.13	–	–
GSDSVIMTGAYNNFFRMFDRNTKR [PPP2R2C]	3.22 ± 0.22	3.39 ± 0.36	–	–
GSPGMIYSTRYGSPKRQLQFYRNL [KCNAB2]	2.44 ± 0.55	3.1 ± 0.38	–	–
GSSFSGRVFRVTFLMLAVSLTVPL [APMAP]	3.06 ± 0.3	3.05 ± 0.35	–	–
GTETHGLVQVTLLDTVELATYCVR [PTPRD]	2.39 ± 0.22	2.55 ± 0.51	–	–
GTSALWRHLRSAHRRELESSGAGS [ZBED3]	3.78 ± 0.57	4.1 ± 0.25	–	–
GTSHGAPPARGPRMSYGGSTCHAY [RBMY1A1]	3.79 ± 0.22	3.77 ± 0.21	–	–
GTVIGVTSCIVIILIIISVIVQIK [NETO1]	3.16 ± 0.34	3.02 ± 0.36	–	–
GVPNASVIMQVPERIVVAGNNEDV [MFF]	4.68 ± 0.72	4.35 ± 0.31	–	–
GVQREAQRIALRLGNGNDKKEMNK [KMT2E]	4.8 ± 0.26	4.78 ± 0.28	–	–
GVVVEDGVCIRRCTVLRDARIRSH [GMPPB]	2.83 ± 0.19	2.75 ± 0.33	–	–
GVWAVIISHQQCWASTSPGTDLPL [TRIM15]	2.75 ± 0.97	2.67 ± 0.18	–	–
GVWHQMGTDGYMPRELASMSLVLH [KLHDC10]	2.08 ± 0.21	2.06 ± 0.27	–	–

Sequence	protein stability index [1]	protein stability index [2]	protein stability index (treatment: DMSO, c terminus: native)	protein stability index (treatment: MLN4924 1 uM, 8 h, c terminus: native)
HAPQISYTGPSSSGRFAGREWYYG [NCK2]	2.52 ± 0.17	2.8 ± 0.4	–	–
HCRENAHDKIRPISSIGQVQSYME [SPACA9]	3.44 ± 0.22	3.29 ± 0.26	–	–
HDFFLQGFTPDRLSSSCCHTVPDF [PLK2]	2.71 ± 0.23	2.73 ± 0.24	–	–
HDFIEHILRKLPQQREKLSLIRKH [CCND2]	2.3 ± 0.1	2.45 ± 0.25	–	–
HFRGVSLNLTRKLAQQLCTALLFL [DYRK1B]	2.04 ± 0.4	2.15 ± 0.23	–	–
HFSQSLTVIHDFLFSLKESPEKFQ [FAF2]	2.06 ± 0.23	2.44 ± 0.26	–	–
HIFPASRWEPYDPEKKWDKYTIR [FAM50A]	–	–	2.82 ± 0.45	3.15 ± 0.51
HILAAEQLSRDSTLGGKAFHITND [NSDHL]	3.39 ± 0.1	3.49 ± 0.28	–	–
HLQLLGAVCMFLASKLKETSPLTA [CCND2]	2.48 ± 0.34	2.36 ± 0.25	–	–
HLSRQKIDPLLYMTEWFMCAFSRT [TBC1D10A]	2.8 ± 0.31	2.67 ± 0.55	–	–
HMVKISGGPHISYPPLHEWVLREG [MAGEA3]	2.29 ± 0.34	2.43 ± 0.35	–	–
HNISHMSMDIARGLMVTCGTDRIV [WDFY1]	2.26 ± 0.16	2.27 ± 0.15	–	–
HNIVHVHFDATRGWLLTSGTDKVI [WDFY2]	2.26 ± 0.45	2.25 ± 0.15	–	–
HNLIEQVSLGLGQPWHAVMDIESL [FBXO33]	2.59 ± 0.52	2.48 ± 0.16	–	–
HRELLRLESRIRDVHELFLQMAVL [STX11]	2.49 ± 0.33	2.4 ± 0.28	–	–
HRTRLQDLRVLVSNASEDTRRLRL [SCARA5]	3.29 ± 0.11	3.57 ± 0.15	–	–
HSDHSSEMSLPEVQKDKYPEEFSL [SPATS1]	5.3 ± 0.29	5.26 ± 0.29	–	–
HSLDLNISEKLTLLPTLYEIHSKT [RNF180]	2.34 ± 0.26	2.46 ± 0.42	–	–
HSVFEFLAFKNDIQFWNSRQSLEG [CLPTM1]	2.03 ± 0.17	2.13 ± 0.28	–	–
HVQNQVDEVIDVMQENITKVIERG [VAMP4]	3.95 ± 0.2	4.13 ± 0.52	–	–
